Measurements reported in patent US12006344 (Novo Nordisk, dated 2024).
Numbering of substitutions follows the chain as printed. Names and notes keep the numbering of the source. One block for each molecule: values may come before it.

Key:
[1] = biological target: human MIC-1 receptor (hGFRAL, GDNF family receptor alpha like) (human) (UniProt Q6UXV0); experiment: cell-based or functional assay
[2] = biological target: T1, human MIC-1 receptor (hGFRAL, GDNF family receptor alpha like) (human, UniProt Q6UXV0 19-394); experiment: cell-based or functional assay
T1 sequence (looked up): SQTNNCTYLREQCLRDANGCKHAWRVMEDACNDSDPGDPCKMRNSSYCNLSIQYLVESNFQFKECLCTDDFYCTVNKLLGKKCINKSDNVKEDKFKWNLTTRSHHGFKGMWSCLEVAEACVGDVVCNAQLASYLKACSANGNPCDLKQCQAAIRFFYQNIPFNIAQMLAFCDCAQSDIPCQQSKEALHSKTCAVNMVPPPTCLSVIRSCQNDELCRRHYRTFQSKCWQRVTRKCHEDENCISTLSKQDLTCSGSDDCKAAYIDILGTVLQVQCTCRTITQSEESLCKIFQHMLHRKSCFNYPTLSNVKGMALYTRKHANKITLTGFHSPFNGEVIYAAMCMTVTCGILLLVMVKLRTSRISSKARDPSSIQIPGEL

B2: AAPDEGTEEETEGSGSGSGSGS-MIC-1-Δ1-3 (ligand)
chain: AAPDEGTEEETEGSGSGSGSGSGDHCPLGPGRCCRLHTVRASLEDLGWADWVLSPREVQVTMCIGACPSQFRAANMHAQIKTSLHRLKPDTVPAPCCVPASYNPMVLIQKTDTGVSLQTYDDLLAKDCHCI
pERK EC50 (nM) [2]: 0.5 nM | pERK Emax (%) [2]: 100%

B4: (SEPATSGSETPG)2-MIC-1-Δ1-3(M57L) (ligand)
chain: SEPATSGSETPGSEPATSGSETPGGDHCPLGPGRCCRLHTVRASLEDLGWADWVLSPREVQVTMCIGACPSQFRAANLHAQIKTSLHRLKPDTVPAPCCVPASYNPMVLIQKTDTGVSLQTYDDLLAKDCHCI
pERK EC50 (nM) [2]: 0.6 nM | pERK Emax (%) [2]: 100%

B5: (SEPATSGSETPG)2-MIC-1-Δ1-3(M57E) (ligand)
chain: B4 chain with L78E
pERK EC50 (nM) [2]: 0.6 nM | pERK Emax (%) [2]: 60%

B6: (SEPATSGSETPG)2-MIC-1-Δ1-3(M86L) (ligand)
chain: B4 chain with L78M, M107L
pERK EC50 (nM) [2]: 0.4 nM | pERK Emax (%) [2]: 100%

B7: (SEPATSGSETPG)2-MIC-1-Δ1-3 (ligand)
chain: B4 chain with L78M
pERK EC50 (nM) [2]: 0.4 nM | pERK Emax (%) [2]: 100%

B10: A(GPEQGQEP)3-MIC-1-Δ1-3 (ligand)
chain: AGPEQGQEPGPEQGQEPGPEQGQEPGDHCPLGPGRCCRLHTVRASLEDLGWADWVLSPREVQVTMCIGACPSQFRAANMHAQIKTSLHRLKPDTVPAPCCVPASYNPMVLIQKTDTGVSLQTYDDLLAKDCHCI
pERK EC50 (nM) [2]: 0.8 nM | pERK Emax (%) [2]: 100%

B11: (SEPATSGSETPG)2-MIC-1-Δ1-3(M57L, M86L) (ligand)
chain: B4 chain with M107L
pERK EC50 (nM) [2]: 0.4 nM | pERK Emax (%) [2]: 100%

Results, then the molecule that gave them:

pERK EC50 (nM) [1]: 3.6 nM
Molecule: HSA-GGSSSGS (SEQ ID NO: 152)-MIC-1 (SEQ ID NO: 1) (from UniProt Q99988 197-308) (ligand)

pERK EC50 (nM) [2]: 0.4 nM | pERK Emax (%) [2]: 100%
B1: SEPATSGSETPGTSESATPESGPG TSTEPSEG-MIC-1-Δ1-3 (ligand)
chain: SEPATSGSETPGTSESATPESGPGTSTEPSEGGDHCPLGPGRCCRLHTVRASLEDLGWADWVLSPREVQVTMCIGACPSQFRAANMHAQIKTSLHRLKPDTVPAPCCVPASYNPMVLIQKTDTGVSLQTYDDLLAKDCHCI

pERK EC50 (nM) [2]: 0.7 nM | pERK Emax (%) [2]: 100%
B3: …-MIC-1-Δ1-3 (ligand)
chain: B4 chain with S13T, E14S, P15T, A16E, T17P, G19E, S20G, E21S, T22A, L78M

pERK EC50 (nM) [2]: 0.3 nM | pERK Emax (%) [2]: 100%
B8: MIC-1(R2A, N3E, A81E) (ligand)
chain: AAEGDHCPLGPGRCCRLHTVRASLEDLGWADWVLSPREVQVTMCIGACPSQFRAANMHAQIKTSLHRLKPDTVPAPCCVPESYNPMVLIQKTDTGVSLQTYDDLLAKDCHCI

pERK EC50 (nM) [2]: 0.4 nM | pERK Emax (%) [2]: 100%
B9: SEPATSGSETPGTSESATPESGPGTSTEPS-MIC-1-Δ1-3 (ligand)
chain: SEPATSGSETPGTSESATPESGPGTSTEPSGDHCPLGPGRCCRLHTVRASLEDLGWADWVLSPREVQVTMCIGACPSQFRAANMHAQIKTSLHRLKPDTVPAPCCVPASYNPMVLIQKTDTGVSLQTYDDLLAKDCHCI
